Earlier results on three substances are cited in article PMC2483503.

The term pKd denotes −log10 of the Kd, conventionally taken in molar units.

pKd: −log10 of the molar value.

What all share (experiment): ITC
In general terms: In ITC the heat of successive injections is recorded.

Data set [1] concerns the target CD3 zeta ITAM C-terminal pY peptide ITAM C-terminal pY peptide (Homo sapiens) (UniProt P20963).
Data set [2] has as its target CD3 zeta ITAM N-terminal pY peptide ITAM N-terminal pY peptide (Homo sapiens) (UniProt P20963).
The target in data set [3] is CD3 zeta ITAM bisphosphopeptide ITAM bisphosphopeptide (Homo sapiens) (UniProt P20963).
In data set [4] the target is FAK peptide FAK peptide (proline-rich and pY motifs) (Homo sapiens) (UniProt Q05397).
In data set [5] the target is FAK peptide (Homo sapiens) (UniProt Q05397).
The target in data set [6] is FAK proline-rich peptide (PXXP) (Homo sapiens) (UniProt Q05397).

ZAP70 SH2 domains, sequence (P43403 1-259): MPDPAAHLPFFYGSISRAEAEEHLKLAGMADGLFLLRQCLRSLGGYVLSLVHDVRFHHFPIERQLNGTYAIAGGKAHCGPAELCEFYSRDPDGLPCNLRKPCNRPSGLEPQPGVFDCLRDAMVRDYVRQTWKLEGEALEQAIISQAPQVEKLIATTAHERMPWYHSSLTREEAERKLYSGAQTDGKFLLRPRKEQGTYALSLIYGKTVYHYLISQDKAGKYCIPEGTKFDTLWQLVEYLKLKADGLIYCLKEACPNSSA
Fyn SH3-SH2, sequence (P06241 82-246): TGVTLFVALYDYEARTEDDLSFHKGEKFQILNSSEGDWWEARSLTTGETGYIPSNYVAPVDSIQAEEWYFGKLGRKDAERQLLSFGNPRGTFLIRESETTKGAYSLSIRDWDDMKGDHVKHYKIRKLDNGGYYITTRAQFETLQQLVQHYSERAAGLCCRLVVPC
Fyn SH3, sequence (P06241 79-146): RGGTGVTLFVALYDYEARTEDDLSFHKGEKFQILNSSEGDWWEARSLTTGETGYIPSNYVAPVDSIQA
FAK peptide FAK peptide (proline-rich and pY motifs) (Homo sapiens), sequence (Q05397 368-403): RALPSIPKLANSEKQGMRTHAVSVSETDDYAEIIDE
FAK peptide (Homo sapiens), sequence (Q05397 2-1052): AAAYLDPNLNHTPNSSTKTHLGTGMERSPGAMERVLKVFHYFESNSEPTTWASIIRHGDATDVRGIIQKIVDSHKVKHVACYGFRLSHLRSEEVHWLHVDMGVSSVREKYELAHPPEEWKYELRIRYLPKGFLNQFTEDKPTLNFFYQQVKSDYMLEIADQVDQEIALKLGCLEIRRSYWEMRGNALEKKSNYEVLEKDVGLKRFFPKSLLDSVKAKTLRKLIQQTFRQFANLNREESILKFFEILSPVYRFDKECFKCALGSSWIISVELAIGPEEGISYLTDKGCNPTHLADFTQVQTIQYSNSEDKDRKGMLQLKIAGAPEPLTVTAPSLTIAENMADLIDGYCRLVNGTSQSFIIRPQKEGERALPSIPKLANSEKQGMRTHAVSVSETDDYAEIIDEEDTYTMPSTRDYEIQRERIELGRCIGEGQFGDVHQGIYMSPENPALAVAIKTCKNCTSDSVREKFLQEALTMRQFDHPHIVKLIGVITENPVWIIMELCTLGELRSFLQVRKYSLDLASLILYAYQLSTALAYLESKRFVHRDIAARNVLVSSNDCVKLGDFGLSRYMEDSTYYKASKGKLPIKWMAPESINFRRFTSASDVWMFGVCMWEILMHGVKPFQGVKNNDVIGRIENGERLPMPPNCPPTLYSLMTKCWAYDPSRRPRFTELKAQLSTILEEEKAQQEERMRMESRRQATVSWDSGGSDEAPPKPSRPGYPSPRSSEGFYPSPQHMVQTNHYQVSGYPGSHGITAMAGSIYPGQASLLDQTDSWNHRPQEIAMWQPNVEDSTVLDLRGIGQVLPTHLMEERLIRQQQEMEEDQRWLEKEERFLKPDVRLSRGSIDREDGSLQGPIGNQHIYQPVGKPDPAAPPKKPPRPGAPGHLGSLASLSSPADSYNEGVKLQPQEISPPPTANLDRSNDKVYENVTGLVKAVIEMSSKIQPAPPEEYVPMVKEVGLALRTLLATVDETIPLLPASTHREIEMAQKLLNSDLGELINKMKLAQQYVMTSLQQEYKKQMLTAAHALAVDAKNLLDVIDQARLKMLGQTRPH

For the substance ZAP70 SH2 domains (from UniProt P43403), the pKd is 3.48 in data set [1], 3.85 in data set [2] and 7.49 in data set [3].
As for Fyn SH3-SH2 (from UniProt P06241), the negative-log Kd (pKd) in data set [4] and in data set [5] was 6.72 in each case.
On to Fyn SH3 (from UniProt P06241), for which, in data set [6], the negative logarithm of the Kd (pKd) was 4.21.
